Two molecules from paper PMC12820974, “Zinc-Mediated Loading and Release of His-Tagged Recombinant Proteins in Self-Assembling Peptide Coacervates” (ACS Applied Bio Materials, 2025) can be followed below.

Series [1] has as its target EAKH6 self-assembling peptide (EAK16-II with a C-terminal hexa-histidine tag).
Series [2] has the same target. This is another data set of the same source.
Series [3] concerns the molecule itself. Briefly: Congo red staining (fluorescence microscopy and UV-vis absorbance); EAKH6 alone and with Zn2+ at molar ratios 1:20 to 20:1, incubated with Congo red in PBS overnight at room temperature; fibrils imaged, shift of absorbance from 500 to 540 nm.

Take “Green Fluorescent Protein coexpressed with a hexahistidine tag”: the in vitro release of HisGFP from Ca2+:EAKH6 (10:1, without Zn2+) coacervates, control; released in 5 days in series [1] amounted to 98%. In addition, in series [2], the apparent diffusion (D app) of HisGFP out of Ca2+:EAKH6 coacervates (without Zn2+), control, from the release up to 8 h stood at 2.07e-11 m^2 s^-1 and the apparent diffusion (D app) of HisGFP out of Zn2+:EAKH6 coacervates, from the release up to 8 h is 6.7e-12 m^2 s^-1.

B1: EAKH6 self-assembling peptide (EAK16-II with a C-terminal hexa-histidine tag) (peptide)
peptide: Ac-AEAEAKAKAEAEAKAKHHHHHH-NH2
notes: hexa-histidine tag (H6) at the C-terminus; written as a part because Zn2+ bridges it to the His tag of the cargo protein; In the assays the peptide stood as self-assembled fibrils (coacervate), with ZnCl2 or CaCl2 where said; also called Zn2+:EAKH6 (its coacervate with zinc); Ca2+:EAKH6 (with calcium); source: synthetic peptide, custom-synthesized by Biomatek (>95% purity by HPLC)
Regarding B1, the binding result in series [3] is given as “binds”.
